Results on one protein are retold here after paper PMC5353710, “Structural insights into the γ-lactamase activity and substrate enantioselectivity of an isochorismatase-like hydrolase from Microbacterium hydrocarbonoxydans” (Scientific Reports, 2017).

Usually Km stands for the concentration of substrate that gives half-maximal velocity. As a reminder, the kcat is the maximal rate divided by the concentration of active sites. One may read the kcat/Km as the second-order rate constant that governs catalysis at low substrate concentration.

Substrate in data set [1]: O=C1N[C@@H]2C=C[C@H]1C2
Kind of data set: purified protein. Particulars: 50 mM Tris-HCl pH 7.5, 25 °C, substrate 5 to 200 mM.

Substrate in data set [2]: O=C1N[C@H]2C=C[C@@H]1C2
Kind of data set: purified protein. Particulars: 50 mM Tris-HCl pH 7.5, 25 °C, substrate 5 to 200 mM.

B1: MhIHL (Mh33H4-5540) (Microbacterium hydrocarbonoxydans) (protein)
chain: MAAPRRTVVLAIDLQAGVTPGCFDEEGVLSRAAALVERARAGGVPVVWVHHDPVGVGTPEWELAAPLHRAEGEPLVRKNYRDSFADTTLRETLDELGATHLVITGAQSDFCVRTTMQRAAAEGYDVTLVSDAHTTVDTEWEGVRISGEQIVAHTNMYFSGLRYPGQEFVIATHDHVAL
With B1, in the data set “purified protein [1]”, the Km was determined as 12.9 mM, the catalytic constant (kcat) is 203 s⁻¹ and the kcat/Km amounted to 15800 M⁻¹ s⁻¹. Also, in the data set “purified protein [2]”, the Km was 34.2 mM, the turnover number (kcat) worked out at 19.8 s⁻¹ and the kcat/Km was 580 M⁻¹ s⁻¹.
